Assay results as given in patent US20240101708A1 (Genentech, published 2024).
Numbering of substitutions follows the chain as printed.

B1: ZNRF3-301 (antibody, V domains shown)
VH: QVQLKESGPGLVQPSQTLSLTCTVSGFSLTSYSVHWVRQHSGKSLEWMGRIWSDGDTSYNSAFTSRLSISRDTSKSQVFLKMNSLQTEDTGTYYCDRSGGSPFFDYWGQGVMVTVSS
VL: QFVLTQSNSVSTNLGSTVKLSCERSIGNIGSNYVNWYQQYEGRSPTTMIYKFDQRPDGVPDRFSGSIDRSSNSVLLTINNVQTEDEADYFCQSYSSDMYIFGGGTKLTVL
notes: Rat clone; VH/VL only
B2: ZNRF3-172 (antibody, V domains shown)
VH: EVQLAESGGGLEQPGRSLKLSCAASGFTFSNYDMAWVRQAPTKGLEWVASIIASGGTTYYRDSVKGRFTVSRDNAKSTLYLQMDSLRSEDTATYYCARHGVGSYDWFADWGQGTLVTVSS
VL: DIVLTQSPALAVSLGQRATISCRASQSVTISGFNLMHWYQQKPGQQPKLLIYRASNLAFGIPARFSGSGSGTDFTLTINPVQADDITTYYCQQSRKSRTFGGGTKLELK
notes: Rat clone; VH/VL only
B3: ZNRF3-179 (antibody, V domains shown)
VH: B2 VH with A53T, G56D, Y95H
VL: B2 VL with F33Y
notes: Rat clone; VH/VL only
B4: ZNRF3-182 (antibody, V domains shown)
VH: B2 VH with A53K, G56D, T58S
VL: B2 VL with I86F
notes: Rat clone; VH/VL only
B5: ZNRF3-30 (antibody, V domains shown)
VH: B2 VH with K43R, I52L, A53T
VL: B2 VL with F33Y, K105R
notes: Rat clone; VH/VL only
B6: ZNRF3-247 (antibody, V domains shown)
VH: EVQLVGSGEGLVQPGSSMKLSCVASGFTFSNSGMNWIRQAPKKGLEWIALIYYTNTYYADSVKGRFTISRDNSKNTLYLEMNSLRSEDTAMYYCAKRGLTGSVDYWGQGVMVTVSS
VL: DIQMTQSPSFLSASVGDRVTINCKASQNINRYLNWYQQKLGEAPKRLIYDTSNLQTGIPSRFSGSGSGTDFTLTISSLQPEDFATYFCLQHDSFPNTFGTGTKLELK
notes: Rat clone; VH/VL only
B7: ZNRF3-265 (antibody, V domains shown)
VH: EVQLVESGGGLVQPGRSMKLSCVASGFSFSKYGMAWVRQAPTKALEWVAIISQDGSRIYYGGSVKGRFTLSRDNEKSTLHLHMNSLRSEDTATYYCARGSILRMITFFDYWGQGVTVTVSS
VL: DIQMTQSPASLSASLGETVSIECLASEGISNDLAWYQQKSGKSPRLLIYAASRLQDGVPSRFSGSGSDTRFSLKISGMHPEDEADYFCQQSYGYPLTFGSGTKLEIK
notes: Rat clone; VH/VL only
B8: ZNRF3-253 (antibody, V domains shown)
VH: EVQLVESGGGLVQPERSMKLSCAASGFTFSNYGMAWVRQAPTKGLEWVATINSDGSGTYYRGSVKGRFTISRDNAKSTLYLQMNSLRSDDTATYYCTRGRMLRIISFFDYWGQGVMVTVSS
VL: DIQMTQSPASLSASLGETVSIECLASEDIANDLAWYQQKSGKSPQVLIYAASRVQDGVPSRFSGSGSGTRYSLKITDMQPEDVADYFCQQSYGFPLTFGSGTKLEIK
notes: Rat clone; VH/VL only
B9: ZNRF3-254 (antibody, V domains shown)
VH: EVQLVESGGGLVQPERSMKLSCAASGFTFNNYGMAWVRQTPTKGLEWVATINSDGSGTHYRGSVKGRFTISRDNAKGTLYLQMHNLRSDDTATYYCARGRILRIITYFDSWGQGVVVTVSS
VL: B8 VL with T18S, K42R, Y49H
notes: Rat clone; VH/VL only
B10: ZNRF3-300 (antibody, V domains shown)
VH: B8 VH with K76R, S77N, Q82E, M101I, S106T, F107Y
VL: B8 VL with L15V, K74R, T76S, G93S
notes: Rat clone; VH/VL only
B11: ZNRF3-312 (antibody, V domains shown)
VH: QVQLQQSGAELVKPGSSVKMSCKASGYSFTTYYIYWINQRPGQGLEWIGRIGLGSGDTDYNEKFKGKATFTVDKFSNTAYLQLSSLTPEDTAVYYCARWDYGYRGFAYWGQGTLVTVSS
VL: DVVMTQTPVSLSVSLGGQVSISCRSSQSFVHSDGNTYLNWYLQTPGQSPQLLIYKVSNRLSGVPDRFSGSGSGTYFTLKISRVEHDDLGVYYCGQASKIPLTFGSGTKLEIK
notes: Rat clone; VH/VL only
B12: ZNRF3-305 (antibody, V domains shown)
VH: EVLLQQSGAELVRPGSSVKISCKTSGYTFTDYYLHWVKQRPEQGLVWIGRINPINGKTVCIEKFKTKATLTADKSSNTAYMELSSLTSEDTATYFCTRGGLAYWGQGTLVTVSS
VL: DIQMTQSPSSLPASLGERVTISCRASQGISNNLNWYQQKPDGTIKPLIYYTSNLQSGVPSRFSGSGSGTDYSLTIGSLEPEDFTMYYCQQDASFPPTFGAGTKLELK
notes: Rat clone; VH/VL only
B13: ZNRF3-269 (antibody, V domains shown)
VH: EIQLQESGPGLVKPSQSLSLTCSVTDDTITSGYDWSWIRKFPGNKMEWMGDISSSGHTNYNPSLQIRISITRDTSKNQFFLQLNSVTTEDSATYYCARGGFLFPFTFWGQGTLVTVSS
VL: B12 VL with G28V, I29L, S30N, I48L, G76T, E79D, T84A, M85I, A100G
notes: Rat clone; VH/VL only
B14: ZNRF3-275 (antibody, V domains shown)
VH: QVQLKESGPGLVQPSQTLSLTCTVSGFSFNYYNVHWLRQPPGKGLEWLGVIWSGGNRDYNSALKPRLRISRDTSKTQVFLTLNSLQTEDTGIYYCTRMWGYGYNPFDHWGQGVMVTVSS
VL: DIQMTQSPSFLSASLGDNITITCHASQDIKGWLAWYQQKSGNAPELLIYKASSLQSGVPSRFSGGGSGTEYVLTISNLQPDDIATYYCQLYHSFPFTFGSGTKLETK
notes: Rat clone; VH/VL only
B15: ZNRF3-314 (antibody, V domains shown)
VH: B14 VH with T23N, L37V, R57T, T76S, T96N, H108Y
VL: B14 VL with D17N, A51T, G65S, T106I
notes: Rat clone; VH/VL only
B16: ZNRF3-279 (antibody, V domains shown)
VH: QVQLQQSGAELVKPGTSVRLSCKASGYTFTHNHMNWIKQTTGQGLEWIGIINPGSGGTNYNVRFKGKATLTVDTSSSTAFMQLSSLTPEDSAVYYCARNLITIAGPFAYWGQGTLVTVSS
VL: DTVLTQSPALTVSPGERVSISCRASEGVSSYIHWYQQKPGQQPKLLIYKASNLASGVPARFSGSGSGTDFTLTIDPVEADDTATYFCQQSWIDHTFGTGTKLELK
notes: Rat clone; VH/VL only
B17: ZNRF3-296 (antibody, V domains shown)
VH: EVQLVESGGGLVQPGKSLRLSCSASGFTFSNYGLHWIRQAPGKGLDWLGYSSSNSGTVYGDAVKGRVTISRDNAKNTLYLQLNSLKSEDTAIYYCARGYSSSPFAYWGQGTLVTVSS
VL: DIVLTQSPALAVSLGQRVTISCKASQNVDGFGIGYMHWYQQKPGQKPKLLIFAGSNLASGIPARFSGSGSGTDFTLTIDPVETDDIATYYCQQNKDFPLTFGSGSRLEIT
notes: Rat clone; VH/VL only
B18: ZNRF3-219 (antibody, V domains shown)
VH: EVQLVESGGGLVQPGRSLKVSCAASGFTFSTFAMAWVRQAPKKGLEWVATITPGGSNTYYPDSVKGRFTISRDNAKSTLYLQMDSLRSEDTANYYCAKCGYPGITSFDYWGQGVMVTVSS
VL: DIQMTQSPSFLSASVGDRVSINCKASQNIGKYLNWYQQELGEAPKRLIYNTNNLQTGIPSRFSGSGSGTDYTLTISGLQPEDFATYFCLQHNGFPLTFGSGTKLEIK
notes: Rat clone; VH/VL only
B19: ZNRF3-287 (antibody, V domains shown)
VH: EVQLVGSGGGLVQPGRSLKISCAASGFTFSYYGMAWVRQAPTRGLEWVATITYNGSKSYYRDSVKGRFTISREYAKSTLYLQMDDLTSEDTATYFCARRTTGMLFDYWGQGVLVTVSS
VL: QAVLTQPNSVSMSLGSTVKLSCTLNSGNIENNFVHWYQQYEGRSPTTMIYNDDKRPDGVPDRFSGSIDSSSNSAFLTINNVEIGDEAIYFCHSFVSSIHIFGGGTKLTVL
notes: Rat clone; VH/VL only

Target: T1, recombinant human ZNRF3 extracellular domain (human, UniProt Q9ULT6 56-219)
T1 construct: extracellular domain; also called huZNRF3; human ZNRF3 ECD
T1 sequence (looked up): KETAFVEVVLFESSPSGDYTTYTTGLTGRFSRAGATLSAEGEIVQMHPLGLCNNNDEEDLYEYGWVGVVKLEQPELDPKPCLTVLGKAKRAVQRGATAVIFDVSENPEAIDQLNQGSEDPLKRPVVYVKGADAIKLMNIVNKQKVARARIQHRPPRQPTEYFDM
Test: SPR Biacore 8K; antibody captured on Protein A; ZNRF3 ECD analyte; 25 C
Procedure: Antibodies were screened for binding to recombinant human RNF43 and ZNRF3 ECDs using a Biacore® 8 k instrument (GE Life Sciences). Briefly, antibodies diluted to 1 μg/ml in 1×HBSP buffer (Cytiva, BR100368) were captured on a Sensor Chip Protein A (GE Life Sciences) using a flow rate of 10 μl/minute and a contact time of 60 seconds. Binding of recombinant human RNF43 and ZNRF3 extracellular domain to the captured antibodies was analyzed at 25° C. using a single cycle kinetics method with a flow rate of 30 μl/minute, a contact time of 180 seconds and a dissociation time of 600 seconds. The concentration of recombinant human RNF43 and ZNRF3 extracellular domain in the single cycle kinetics were 0, 0.8, 4, 20, and 100 nM. Between cycles, the chip was regenerated using 10 mM Glycine HCl pH 1.5 injected for 30 seconds at 30 μl/minute. Data were evaluated using Biacore 8K Evaluation software (GE Life Sciences). Kinetic constants were obtained using a 1:1 binding model with the parameter RI set to zero. Cell surface ligase antibodies with sub-nanomolar affinities may provide advantages in certain instances, for example, in the degradation efficiency which is correlated with the durability of the ternary complex as shown in FIG. 5D.

Binder | Kd [pM]
B1 | 97.4
B2 | 210
B3 | 110
B4 | 60
B5 | 120
B6 | 161
B7 | 28.6
B8 | 483
B9 | 104
B10 | 239
B11 | 611
B12 | 7180
B13 | 312
B14 | 56.5
B15 | 104
B16 | 1660
B17 | 37.1
B18 | 1900
B19 | 191
